Reference: patent publication US20180127503A1 (EUREKA THERAPEUTICS, published 2018)

What was measured:
[1] = target: T1, human ROR2 expressed on the cell surface (human, UniProt Q01974 34-943); assay: flow cytometry, H69 cells (SCLC); design: unit not given here
T1 construct: Endogenous ROR2 of human tumour cell lines; also called cell surface ROR2; ROR2 on tumour cell lines
Experimental: (§1) Human tumour cell lines were authenticated using short tandem repeat (STR) analysis. They were cultured in RPMI1640 (Cellgro) supplemented with 10% fetal bovine serum (FBS, Life Technologies) at 37° C. in a 5% CO₂ humidified incubator. They were harvested, washed in PBS and reacted with ROR2-IgG at 1 ug/10⁶ tumour cells on ice for an hour. #901-IgG was used as a negative control at the same dose. After washing, a secondary PE-conjugated goat anti-human IgG, Fcγ fragment specific (1:100, Jackson ImmunoResearch) was added for another 30 min incubation. Staining was analyzed on a FACSCalibur (BD Biosciences). ROR2 (full length) antibody binding towards multiple cancer cell lines were compared with Rituxan and Herceptin antibodies. The cancer cell lines were derived from breast cancer, colorectal cancer, mesothelioma, hepatocellular carcinoma, ovarian cancer, osteosarcoma, neuroblastoma, etc. ROR2 #90 antibody could recognize most of the tumour cells tested, and in some cases, the binding intensity was higher than Herceptin (see Tables 8 to 10).

[2] = target: T1, human ROR2 expressed on the cell surface; assay: flow cytometry, H345 cells (SCLC); design: unit not given here
Experimental: as §1

[3] = target: T1, human ROR2 expressed on the cell surface; assay: flow cytometry, HEP G2 cells (HCC); design: unit not given here
Experimental: as §1

[4] = target: T1, human ROR2 expressed on the cell surface; assay: flow cytometry, COLO 205 cells (CRC); design: unit not given here
Experimental: as §1

[5] = target: T1, human ROR2 expressed on the cell surface; assay: flow cytometry, TC32 cells (EW/PNET); design: unit not given here
Experimental: as §1

[6] = target: T1, human ROR2 expressed on the cell surface; assay: flow cytometry, M14 cells (melanoma); design: reference not given here
Experimental: as §1

[7] = target: T1, human ROR2 expressed on the cell surface; assay: flow cytometry, OCM1 cells (melanoma); design: unit not given here
Experimental: as §1

[8] = target: T1, human ROR2 expressed on the cell surface; assay: flow cytometry, CHP100 cells (EW/PNET); design: unit not given here
Experimental: as §1

[9] = target: T1, human ROR2 expressed on the cell surface; assay: flow cytometry, SKES-1 cells (EW/PNET); design: unit not given here
Experimental: as §1

[10] = target: T1, human ROR2 expressed on the cell surface; assay: flow cytometry, HTB63 cells (melanoma); design: unit not given here
Experimental: as §1

[11] = target: T1, human ROR2 expressed on the cell surface; assay: flow cytometry, AU565 cells (breast CA); design: unit not given here
Experimental: as §1

[12] = target: T1, human ROR2 expressed on the cell surface; assay: flow cytometry, HTB27 cells (breast CA); design: unit not given here
Experimental: as §1

[13] = target: T1, human ROR2 expressed on the cell surface; assay: flow cytometry, SKMEL28 cells (melanoma); design: reference not given here
Experimental: as §1

[14] = target: T1, human ROR2 expressed on the cell surface; assay: flow cytometry, OVCAR3 cells (ovarian CA); design: unit not given here
Experimental: as §1

[15] = target: T1, human ROR2 expressed on the cell surface; assay: flow cytometry, MCF7-Luc cells (breast CA); design: unit not given here
Experimental: as §1

[16] = target: T1, human ROR2 expressed on the cell surface; assay: flow cytometry, RG187 cells (osteosarcoma); design: unit not given here
Experimental: as §1

[17] = target: T1, human ROR2 expressed on the cell surface; assay: flow cytometry, NMB7 cells (neuroblastoma); design: unit not given here
Experimental: as §1

[18] = target: T1, human ROR2 expressed on the cell surface; assay: flow cytometry, IMR32 cells (neuroblastoma); design: unit not given here
Experimental: as §1

[19] = target: T1, human ROR2 expressed on the cell surface; assay: flow cytometry, LAN-1 cells (neuroblastoma); design: unit not given here
Experimental: as §1

[20] = target: T1, human ROR2 expressed on the cell surface; assay: flow cytometry, SKNJB cells (neuroblastoma); design: unit not given here
Experimental: as §1

[21] = target: T1, human ROR2 expressed on the cell surface; assay: flow cytometry, SKNMM cells (neuroblastoma); design: unit not given here
Experimental: as §1

[22] = target: T1, human ROR2 expressed on the cell surface; assay: flow cytometry, SKNSH cells (neuroblastoma); design: unit not given here
Experimental: as §1

[23] = target: T1, human ROR2 expressed on the cell surface; assay: flow cytometry, CRL1427 cells (osteosarcoma); design: unit not given here
Experimental: as §1

[24] = target: T1, human ROR2 expressed on the cell surface; assay: flow cytometry, BE(1)N cells (neuroblastoma); design: unit not given here
Experimental: as §1

[25] = target: T1, human ROR2 expressed on the cell surface; assay: flow cytometry, BE(2)S cells (neuroblastoma); design: unit not given here
Experimental: as §1

[26] = target: T1, human ROR2 expressed on the cell surface; assay: flow cytometry, NCI-H2052 cells (mesothelioma); design: reference not given here
Experimental: as §1

[27] = target: T1, human ROR2 expressed on the cell surface; assay: flow cytometry, OUMS 27 cells (chondrosarcoma); design: unit not given here
Experimental: as §1

[28] = target: T1, human ROR2 expressed on the cell surface; assay: flow cytometry, HTB26 (MDA-MB-231) cells (breast CA); design: unit not given here
Experimental: as §1

T1 sequence (Q01974 34-943 limits assumed): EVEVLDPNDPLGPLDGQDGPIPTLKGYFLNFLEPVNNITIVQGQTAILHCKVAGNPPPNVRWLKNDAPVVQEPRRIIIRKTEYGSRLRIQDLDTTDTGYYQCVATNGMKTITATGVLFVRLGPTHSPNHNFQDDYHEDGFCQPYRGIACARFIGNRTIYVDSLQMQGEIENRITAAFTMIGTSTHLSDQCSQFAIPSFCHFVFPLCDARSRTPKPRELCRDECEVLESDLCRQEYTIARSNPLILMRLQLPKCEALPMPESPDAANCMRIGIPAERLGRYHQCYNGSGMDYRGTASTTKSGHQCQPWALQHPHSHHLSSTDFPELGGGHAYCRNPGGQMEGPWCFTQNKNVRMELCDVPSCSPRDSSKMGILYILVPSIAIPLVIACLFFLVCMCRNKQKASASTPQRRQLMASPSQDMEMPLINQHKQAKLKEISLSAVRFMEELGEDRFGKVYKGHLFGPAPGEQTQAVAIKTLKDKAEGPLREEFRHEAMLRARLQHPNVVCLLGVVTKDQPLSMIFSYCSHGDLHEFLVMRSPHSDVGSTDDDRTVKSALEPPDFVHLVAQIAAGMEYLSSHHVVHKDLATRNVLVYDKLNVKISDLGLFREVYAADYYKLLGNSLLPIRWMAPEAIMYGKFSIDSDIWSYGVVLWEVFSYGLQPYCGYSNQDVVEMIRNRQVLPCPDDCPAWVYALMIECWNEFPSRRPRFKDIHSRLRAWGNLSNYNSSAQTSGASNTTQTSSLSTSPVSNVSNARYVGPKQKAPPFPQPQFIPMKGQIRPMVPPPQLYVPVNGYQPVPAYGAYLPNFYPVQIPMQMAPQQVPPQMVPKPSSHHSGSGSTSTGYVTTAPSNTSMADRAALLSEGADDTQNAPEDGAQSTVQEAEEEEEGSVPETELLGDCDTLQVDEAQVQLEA

B1: ROR2-90 full length human IgG1 antibody (antibody, V domains shown)
VH: EVQLVESGPGLVKPSQTLSLTCTVSGGSISSGGYYWSWIRQHPGKGLEWIGYIYYSGSTYYNPSLKSRVTISVDTSKNQFSLKLSSVTAADTAMYYCARGGLYWTYSQDVWGQGTLVTVSS
VL: QPVLTQPPSASGTPGQRVTISCSGSSSNIGSDYVSWYQQLPGTAPKLLIYRNDQRPSGVPDRFSGSKSGTSASLAISGLRSEDEADYYCVAWDDSLSGYVFGSGTKVTVLG
notes: also called clone #90; antibody #90
[1]
  binding intensity: 15
[2]
  binding intensity: 48
[3]
  binding intensity: 49
[4]
  binding intensity: 44
[5]
  binding intensity: 70
[6]
  binding intensity: 17
[7]
  binding intensity: 18
[8]
  binding intensity: 57
[9]
  binding intensity: 28
[10]
  binding intensity: 27
[11]
  binding intensity: 211
[12]
  binding intensity: 125
[13]
  binding intensity: 26
[14]
  binding intensity: 48
[15]
  binding intensity: 190
[16]
  binding intensity: 79
[17]
  binding intensity: 47
[18]
  binding intensity: 51
[19]
  binding intensity: 48
[20]
  binding intensity: 254
[21]
  binding intensity: 117
[22]
  binding intensity: 105
[23]
  binding intensity: 45
[24]
  binding intensity: 302
[25]
  binding intensity: 40
[26]
  binding intensity: 101
[27]
  binding intensity: 78
[28]
  binding intensity: 19
